For 19 molecules, percent inhibition of neutrophil binding to GMP-140 results are on record in patent US6528487B1, “Peptide inhibitors of inflammation mediated by selectins” (Centocor, Inc., priority 1991, dated 2003).

Values joined by “and” are separate entries in the source; they are usually repeats but may differ in a detail not shown here. Equal entries are not always repeated. Non-standard residues stand in square brackets, D forms with d. No end group written: not given here. *: point of attachment. Fmoc = O=C(OCC1c2ccccc2-c2ccccc21)*

The target in the test is GMP-140 receptors on the surface of leukocytes (human). In words: neutrophil adhesion to GMP-140 coated wells, peptide preincubated with neutrophils, myeloperoxidase read-out.

As to RKNNGTWTWV-NH2, the percent inhibition of neutrophil binding to GMP-140 at 0.1 mM peptide came out at 46%, the percent inhibition of neutrophil binding to GMP-140 at 0.5 mM peptide was 99% and the percent inhibition of neutrophil binding to GMP-140 at 1.0 mM peptide was determined as 99%.

As to RKIGGIWTWV-NH2, the percent inhibition of neutrophil binding to GMP-140 at 0.1 mM peptide came to 96%, the percent inhibition of neutrophil binding to GMP-140 at 0.5 mM peptide was found to be 103% and the percent inhibition of neutrophil binding to GMP-140 at 1.0 mM peptide was found to be 105%.

On to RKNNKTWTWVGTKKALTNEC-NH2, for which the percent inhibition of neutrophil binding to GMP-140 at 0.1 mM peptide was 9% and the percent inhibition of neutrophil binding to GMP-140 at 1.0 mM peptide worked out at 47%.

B1: FMOC-NNKTW-NH2 (peptide)
peptide: Fmoc-NNKTW-NH2
SMILES: C[C@@H](O)[C@H](NC(=O)[C@H](CCCCN)NC(=O)[C@H](CC(N)=O)NC(=O)[C@H](CC(N)=O)NC(=O)OCC1c2ccccc2-c2ccccc21)C(=O)N[C@@H](Cc1c[nH]c2ccccc12)C(N)=O
For the molecule B1, the percent inhibition of neutrophil binding to GMP-140 at 0.1 mM peptide was 85%, the percent inhibition of neutrophil binding to GMP-140 at 0.5 mM peptide worked out at 100% and the percent inhibition of neutrophil binding to GMP-140 at 1.0 mM peptide came to 99%.

Consider RKVNNVWVWV, for which the percent inhibition of neutrophil binding to GMP-140 at 0.1 mM peptide came to 82% and the percent inhibition of neutrophil binding to GMP-140 at 0.5 mM peptide was 98%.

For the molecule RENNKTWTWV-NH2, the percent inhibition of neutrophil binding to GMP-140 at 0.1 mM peptide turned out to be 34%, the percent inhibition of neutrophil binding to GMP-140 at 0.5 mM peptide is 94% and the percent inhibition of neutrophil binding to GMP-140 at 1.0 mM peptide came out at 96%.

RKNNKTWTWV: the percent inhibition of neutrophil binding to GMP-140 at 0.1 mM peptide worked out at 14% and the percent inhibition of neutrophil binding to GMP-140 at 1.0 mM peptide is 35%.

RKNNKTWT-NH2 [RKNNKTWT-NH2]: the percent inhibition of neutrophil binding to GMP-140 at 0.1 mM peptide was 26%, the percent inhibition of neutrophil binding to GMP-140 at 0.5 mM peptide is 23% and the percent inhibition of neutrophil binding to GMP-140 at 1.0 mM peptide amounted to 34%.

Regarding RKNNKTWTWV-NH2, the percent inhibition of neutrophil binding to GMP-140 at 0.1 mM peptide was 13% and 14%; the percent inhibition of neutrophil binding to GMP-140 at 0.5 mM peptide is 20% and 30%.

In the case of CRKNNKTWTWV-NH2, the percent inhibition of neutrophil binding to GMP-140 at 0.1 mM peptide was 87% and the percent inhibition of neutrophil binding to GMP-140 at 1.0 mM peptide was 105%.

As for Ac-RKNNKTWTWV-NH2 [Ac-…-NH2], the percent inhibition of neutrophil binding to GMP-140 at 0.1 mM peptide is 35% and the percent inhibition of neutrophil binding to GMP-140 at 0.5 mM peptide stood at 50%.

On to RKVNNVWVWV-NH2, for which the percent inhibition of neutrophil binding to GMP-140 at 0.1 mM peptide was determined as 94% and the percent inhibition of neutrophil binding to GMP-140 at 0.5 mM peptide worked out at 102%.

Take RKNNKTWTWE-NH2: the percent inhibition of neutrophil binding to GMP-140 at 0.1 mM peptide was 17% and the percent inhibition of neutrophil binding to GMP-140 at 0.5 mM peptide worked out at 20%.

As for YKNNKTWTWV-NH2, the percent inhibition of neutrophil binding to GMP-140 at 0.1 mM peptide turned out to be 9%, the percent inhibition of neutrophil binding to GMP-140 at 0.5 mM peptide amounted to 98% and the percent inhibition of neutrophil binding to GMP-140 at 1.0 mM peptide amounted to 104%.

B2: RkIGGIWTWV-NH2 (peptide)
peptide: R[dK]IGGIWTWV-NH2
modifications: N-terminus assumed
SMILES: CC[C@H](C)[C@H](NC(=O)CNC(=O)CNC(=O)[C@@H](NC(=O)[C@@H](CCCCN)NC(=O)[C@@H](N)CCCNC(=N)N)[C@@H](C)CC)C(=O)N[C@@H](Cc1c[nH]c2ccccc12)C(=O)N[C@H](C(=O)N[C@@H](Cc1c[nH]c2ccccc12)C(=O)N[C@H](C(N)=O)C(C)C)[C@@H](C)O
In the case of B2, the percent inhibition of neutrophil binding to GMP-140 at 0.1 mM peptide was 67%, the percent inhibition of neutrophil binding to GMP-140 at 0.5 mM peptide worked out at 88% and the percent inhibition of neutrophil binding to GMP-140 at 1.0 mM peptide was determined as 97%.

Turning to RKNNKTW-NH2 [RKNNKTW-NH2], the percent inhibition of neutrophil binding to GMP-140 at 0.1 mM peptide amounted to 31%, the percent inhibition of neutrophil binding to GMP-140 at 0.5 mM peptide stood at 53% and the percent inhibition of neutrophil binding to GMP-140 at 1.0 mM peptide was determined as 99%.

RKVNNVW-NH2 [RKVNNVW-NH2]: the percent inhibition of neutrophil binding to GMP-140 at 1.0 mM peptide came out at 17%.

B3: r…-NH2 (peptide)
peptide: [dR]KIGGIWTWV-NH2
modifications: N-terminus assumed
SMILES: CC[C@H](C)[C@H](NC(=O)CNC(=O)CNC(=O)[C@@H](NC(=O)[C@H](CCCCN)NC(=O)[C@H](N)CCCNC(=N)N)[C@@H](C)CC)C(=O)N[C@@H](Cc1c[nH]c2ccccc12)C(=O)N[C@H](C(=O)N[C@@H](Cc1c[nH]c2ccccc12)C(=O)N[C@H](C(N)=O)C(C)C)[C@@H](C)O
With B3, the percent inhibition of neutrophil binding to GMP-140 at 0.1 mM peptide came out at 95% and the percent inhibition of neutrophil binding to GMP-140 at 0.5 mM peptide was determined as 96%.

Consider KWKWNRTNVT-NH2 […-NH2 (control peptide)], for which the percent inhibition of neutrophil binding to GMP-140 at 0.1 mM peptide was found to be 0%, the percent inhibition of neutrophil binding to GMP-140 at 0.5 mM peptide stood at 0% and the percent inhibition of neutrophil binding to GMP-140 at 1.0 mM peptide came to 0%.
